Assay results reported in IntAct's records for PubMed 23804756.

B1: MIF4G domain-containing protein (Homo sapiens), A9UHW6 (parent)
chain: MGEPSREEYKIQSFDAETQQLLKTALKDPGAVDLEKVANVIVDHSLQDCVFSKEAGRMCYAIIQAESKQAGQSVFRRGLLNRLQQEYQAREQLRARSLQGWVCYVTFICNIFDYLRVNNMPMMALVNPVYDCLFRLAQPDSLSKEEEVDCLVLQLHRVGEQLEKMNGQRMDELFVLIRDGFLLPTGLSSLAQLLLLEIIEFRAAGWKTTPAAHKYYYSEVSD

Variants of: B1
Settings: with slbp_human SLBP

Variant | effect of a mutation on the interaction
R77A;N81A;Q84A | decreasing interaction strength
